According to US20080248458A1 (UNIVERSITY OF NORTH CAROLINA AT CHAPEL HILL, published 2008):

B2: Ring1B (enzyme, mouse, UniProt Q9CQJ4 2-336, looked up)
chain: SQAVQTNGTQPLSKTWELSLYELQRTPQEAITDGLEIVVSPRSLHSELMCPICLDMLKNTMTTKECLHRFCADCIITALRSGNKECPTCRKKLVSKRSLRPDPNFDALISKIYPSRDEYEAHQERVLARINKHNNQQALSHSIEEGLKIQAMNRLQRGKKQQIENGSGAEDNGDSSHCSNASTHSNQEAGPSNKRTKTSDDSGLELDNNNAAVAIDPVMDGASEIELVFRPHPTLMEKDDSAQTRYIKTSGNATVDHLSKYLAVRLALEELRSKGESNQMNLDTASEKQYTIYIATASGQFTVLNGSFSLELVSEKYWKVNKPMELYYAPTKEHK
notes: mature; Untagged protein: 35S-labelled in vitro translation product (pCITE, full-length cDNA) in the GST pull-down; baculovirus-expressed in Sf9 cells in the co-purifications; also called Ring2; Ring2/Ring1B

How the values were obtained:
Ring1A = target: T1, Ring1A (mouse, UniProt O35730 1-406); assay: GST pull-down with 35S-labelled in vitro translated protein (FIG. 5A)
T1 construct: mature; Untagged protein: 35S-labelled in vitro translation product in the GST pull-down; baculovirus-expressed in Sf9 cells in the co-purifications; also called Ring1/Ring1A
T1 sequence (looked up): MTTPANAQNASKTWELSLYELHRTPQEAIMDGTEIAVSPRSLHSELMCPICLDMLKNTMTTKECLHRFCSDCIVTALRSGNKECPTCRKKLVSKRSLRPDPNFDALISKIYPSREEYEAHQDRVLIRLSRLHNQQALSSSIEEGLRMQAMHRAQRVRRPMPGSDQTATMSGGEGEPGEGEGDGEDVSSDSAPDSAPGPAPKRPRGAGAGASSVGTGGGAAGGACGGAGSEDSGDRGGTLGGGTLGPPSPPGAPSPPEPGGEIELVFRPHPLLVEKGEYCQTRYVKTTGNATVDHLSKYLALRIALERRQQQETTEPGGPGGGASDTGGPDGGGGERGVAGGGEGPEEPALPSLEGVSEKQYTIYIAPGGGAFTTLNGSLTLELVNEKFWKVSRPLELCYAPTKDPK
Procedure: (§1) Full-length cDNAs for Ring1B, Ring1A, Bmi-1, Pc3 and Ph2 were inserted into pCITE vector for in vitro translation using the rabbit reticulocyte lysate kit according to the manufacturer's instructions (PROMEGA, Madison, Wis.). Full-length cDNAs for Ring1B, Ring1A, Bmi-1, Pc3 and Ph2 were also cloned into pGEX-KG vector for the production of GST-fusion proteins. About 3 μg of GST or GST fusion proteins were bound to 10 μL of glutathione-immobilized agarose beads (Sigma) and incubated with in vitro-translated products in 500 μL buffer A (50 mM Tris-HCl [pH 7.9], 0.5 mM EDTA, 1 mM dithiothreitol, 0.2 mM phenylmethylsulfonyl fluoride, 10% glycerol) containing 150 mM KCl and 0.05% NP-40. After incubation at 4° C. for 2 hours, the beads were washed three times with buffer A containing 300 mM KCl and 0.05% NP-40 and then washed once in buffer A containing 50 mM KCl before being subjected to SDS-PAGE and autoradiogram.
(§2) To address the effect of other subunits on Ring1B enzymatic activity, an attempt was made to reconstitute Ring1B-containing subcomplexes. Toward this end, the precise spatial relationship among components of the complex were first defined using GST full-down assays. Individual components were expressed as GST fusion proteins and equal amounts of the fusion proteins, as well as GST alone (FIG. 5A, last panel), were immobilized onto beads and incubated with ³⁵S-labeled proteins. […]

GST-Ring1A = target: T2, GST-Ring1A (mouse, UniProt O35730 1-406); assay: as above
T2 construct: mature; Full-length cDNA cloned into pGEX-KG; also called GST fusion of Ring1A; not shown: glutathione S-transferase (GST) encoded by the pGEX-KG vector
T2 sequence (looked up): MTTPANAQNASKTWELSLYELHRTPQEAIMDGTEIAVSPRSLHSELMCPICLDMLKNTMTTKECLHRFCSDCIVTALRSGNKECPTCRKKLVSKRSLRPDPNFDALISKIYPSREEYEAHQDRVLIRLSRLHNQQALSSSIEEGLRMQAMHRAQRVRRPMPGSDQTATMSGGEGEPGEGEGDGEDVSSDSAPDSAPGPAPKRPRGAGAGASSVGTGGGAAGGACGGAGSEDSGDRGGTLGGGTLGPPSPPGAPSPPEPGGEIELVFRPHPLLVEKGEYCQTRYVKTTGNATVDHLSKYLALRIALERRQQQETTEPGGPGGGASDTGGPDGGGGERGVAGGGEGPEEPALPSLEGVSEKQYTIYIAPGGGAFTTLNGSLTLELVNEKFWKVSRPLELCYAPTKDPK
Procedure: as §1, §2

Bmi-1, P25916 = target: T3, Bmi-1, P25916
T3 chain: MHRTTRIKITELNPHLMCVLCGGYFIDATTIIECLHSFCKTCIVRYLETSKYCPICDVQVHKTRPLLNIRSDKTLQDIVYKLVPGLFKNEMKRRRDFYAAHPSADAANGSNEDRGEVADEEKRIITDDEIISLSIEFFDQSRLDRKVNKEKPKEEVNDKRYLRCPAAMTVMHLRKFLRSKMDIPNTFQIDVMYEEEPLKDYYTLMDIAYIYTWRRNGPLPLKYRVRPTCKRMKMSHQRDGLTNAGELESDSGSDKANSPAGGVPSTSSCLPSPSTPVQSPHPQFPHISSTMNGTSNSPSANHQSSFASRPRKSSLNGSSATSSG

Ring1B = target: B2; assay: purification of two-component complexes from infected insect cells (FIG. 13D)
FLAG®-Ring1B = target: T4, FLAG®-Ring1B (mouse, UniProt Q9CQJ4 1-336); assay: co-expression in Sf9 cells, anti-FLAG purification, silver stain (FIG. 7A)
T4 construct: also called F-Ring1B
T4 sequence: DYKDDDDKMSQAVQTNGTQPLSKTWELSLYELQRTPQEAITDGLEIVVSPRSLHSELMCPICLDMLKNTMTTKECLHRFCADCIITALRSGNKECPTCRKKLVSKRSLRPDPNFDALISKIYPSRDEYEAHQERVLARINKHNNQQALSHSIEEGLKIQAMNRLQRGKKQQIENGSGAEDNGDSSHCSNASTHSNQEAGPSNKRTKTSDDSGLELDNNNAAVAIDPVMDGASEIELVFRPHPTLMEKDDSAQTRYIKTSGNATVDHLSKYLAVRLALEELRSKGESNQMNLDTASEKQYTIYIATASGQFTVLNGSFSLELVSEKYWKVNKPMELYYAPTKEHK
Procedure: To purify the recombinant PRC1 complex and sub-complexes, different baculoviruses were used to co-infect SF9 cells. After two days of infection, cells were collected and resuspended in F lysis buffer [20 mM Tris (pH 7.9), 500 mM NaCl, 4 mM MgCl₂, 0.4 mM EDTA, 2 mM DTT, 20% glycerol, 0.1% NP40] with proteinase inhibitors. Then cells were homogenized with pestle A three times (10 strokes each) in a period of 30 minutes. The supernatant was recovered by centrifuging at 11,000 rpm for 10 minutes. The supernatant was adjusted to 300 mM NaCl by adding Dilution buffer [20 mM Tris (pH 7.9), 10% glycerol], then incubated with the M2 α-FLAG® agarose (Sigma, St. Louis, Mo.) equilibrated with F lysis buffer for 4 hours at 4° C. After washing with F washing buffer [20 mM Tris (pH 7.9), 150 mM NaCl, 2 mM MgCl₂, 0.2 mM EDTA, 1 mM DTT, 15% glycerol, 0.01% NP40] until no protein came out, bound proteins were eluted with 0.2 mg/ml FLAG® peptide ([…]; SEQ ID NO:5) in F washing buffer for 20 minutes each time at room temperature. The eluted complexes were further purified through a gel-filtration SEPHADEX 200 or SUPEROSE 6 column. […]

B1: GST-Ring1B (other, mouse, UniProt Q9CQJ4 2-336, looked up)
chain: SQAVQTNGTQPLSKTWELSLYELQRTPQEAITDGLEIVVSPRSLHSELMCPICLDMLKNTMTTKECLHRFCADCIITALRSGNKECPTCRKKLVSKRSLRPDPNFDALISKIYPSRDEYEAHQERVLARINKHNNQQALSHSIEEGLKIQAMNRLQRGKKQQIENGSGAEDNGDSSHCSNASTHSNQEAGPSNKRTKTSDDSGLELDNNNAAVAIDPVMDGASEIELVFRPHPTLMEKDDSAQTRYIKTSGNATVDHLSKYLAVRLALEELRSKGESNQMNLDTASEKQYTIYIATASGQFTVLNGSFSLELVSEKYWKVNKPMELYYAPTKEHK
notes: mature; Full-length cDNA cloned into pGEX-KG; also called GST fusion of Ring1B; not shown: glutathione S-transferase (GST) encoded by the pGEX-KG vector
binding result (Ring1A): no binding

B2
binding result (GST-Ring1A): no binding

B3: FLAG®-Ring1B (protein)
chain: DYKDDDDKMSQAVQTNGTQPLSKTWELSLYELQRTPQEAITDGLEIVVSPRSLHSELMCPICLDMLKNTMTTKECLHRFCADCIITALRSGNKECPTCRKKLVSKRSLRPDPNFDALISKIYPSRDEYEAHQERVLARINKHNNQQALSHSIEEGLKIQAMNRLQRGKKQQIENGSGAEDNGDSSHCSNASTHSNQEAGPSNKRTKTSDDSGLELDNNNAAVAIDPVMDGASEIELVFRPHPTLMEKDDSAQTRYIKTSGNATVDHLSKYLAVRLALEELRSKGESNQMNLDTASEKQYTIYIATASGQFTVLNGSFSLELVSEKYWKVNKPMELYYAPTKEHK
E3 ligase activity (ubiquitylation of nucleosomal substrates) (Bmi-1, P25916): stimulated its E3 ligase activity

B4: Bmi-1 (other, mouse, UniProt P25916 1-324, looked up)
chain: MHRTTRIKITELNPHLMCVLCGGYFIDATTIIECLHSFCKTCIVRYLETSKYCPICDVQVHKTRPLLNIRSDKTLQDIVYKLVPGLFKNEMKRRRDFYAAHPSADAANGSNEDRGEVADEEKRIITDDEIISLSIEFFDQSRLDRKVNKEKPKEEVNDKRYLRCPAAMTVMHLRKFLRSKMDIPNTFQIDVMYEEEPLKDYYTLMDIAYIYTWRRNGPLPLKYRVRPTCKRMKMSHQRDGLTNAGELESDSGSDKANSPAGGVPSTSSCLPSPSTPVQSPHPQFPHISSTMNGTSNSPSANHQSSFASRPRKSSLNGSSATSSG
notes: mature; Untagged protein: 35S-labelled in vitro translation product in the GST pull-down; baculovirus-expressed in Sf9 cells in the two-component complex with FLAG-Ring1B
binding result (Ring1B): binds
binding result (FLAG®-Ring1B): binds
